IKACh block, patch clamp, dose response curve, median fluorescence and IC50 data for 3 substances are collected here from patent publication US20190225658A1.

Experiment [1] has as its target Kir3.1/Kir3.4 channel. In words: cell-based or functional assay.
Experiment [2] deals with Kir3.1/Kir3.4 channel. Kind of experiment: flow cytometry, HEK cells stably transfected with Kir3.1/3.4, labeled with 10 nM; unlabeled cells 162 A.U.
In experiment [3] the target is Kir3.1/Kir3.4 channel. Kind of experiment: flow cytometry dose response curve of binding on HEK cells stably transfected with Kir3.1/3.4.

Chain of Kir3.1/Kir3.4 channel (P48549 whole entry, chain 1 of 2): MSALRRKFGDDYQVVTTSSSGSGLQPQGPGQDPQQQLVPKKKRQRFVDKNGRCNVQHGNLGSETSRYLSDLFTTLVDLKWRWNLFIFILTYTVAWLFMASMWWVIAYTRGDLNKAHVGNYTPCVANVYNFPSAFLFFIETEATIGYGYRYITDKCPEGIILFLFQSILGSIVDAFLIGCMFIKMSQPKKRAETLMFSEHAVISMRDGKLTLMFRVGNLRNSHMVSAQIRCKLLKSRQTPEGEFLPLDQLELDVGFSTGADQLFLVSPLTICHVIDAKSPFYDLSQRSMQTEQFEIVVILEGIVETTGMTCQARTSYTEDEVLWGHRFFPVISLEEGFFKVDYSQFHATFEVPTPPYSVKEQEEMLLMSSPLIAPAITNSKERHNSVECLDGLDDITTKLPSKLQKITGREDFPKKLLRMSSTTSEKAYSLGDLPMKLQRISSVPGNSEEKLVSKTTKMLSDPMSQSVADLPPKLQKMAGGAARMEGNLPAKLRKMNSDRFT
Chain of Kir3.1/Kir3.4 channel (P48544 whole entry, chain 2 of 2, further chain): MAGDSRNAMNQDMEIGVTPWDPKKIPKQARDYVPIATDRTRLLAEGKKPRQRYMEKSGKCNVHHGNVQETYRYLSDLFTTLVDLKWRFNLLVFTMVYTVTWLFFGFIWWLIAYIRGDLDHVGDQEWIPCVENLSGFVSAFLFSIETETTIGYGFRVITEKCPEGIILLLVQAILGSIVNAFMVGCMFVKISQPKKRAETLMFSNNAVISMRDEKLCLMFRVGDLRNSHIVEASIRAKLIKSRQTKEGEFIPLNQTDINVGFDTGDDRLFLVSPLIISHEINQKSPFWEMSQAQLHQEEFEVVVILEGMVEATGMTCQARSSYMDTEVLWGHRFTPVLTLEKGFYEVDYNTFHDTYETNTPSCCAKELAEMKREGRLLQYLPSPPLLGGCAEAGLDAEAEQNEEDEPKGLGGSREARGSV

Substance TertiapinQ (peptide) yielded an IKACh block, patch clamp, dose response curve with Kir3.1/Kir3.4 channel [1] of 70 nM.

In the case of “TertiapinQ labeled with ATT0633 (peptide)”, in the experiment with Kir3.1/Kir3.4 channel [2], the median fluorescence was 3840 A.U. In addition, in the experiment with Kir3.1/Kir3.4 channel [3], the IC50 stood at 11 nM. Consider TertiapinQ peptibody (Fc fusion), for which the IKACh block, patch clamp, dose response curve in the experiment with Kir3.1/Kir3.4 channel [1] is 16 nM.
